Here are results for 2 molecules from publication PMC3351836 (Science (New York, N.y.), 2011).

This experiment has as its target YU2-gp120 (HIV-1 group M subtype B, isolate YU-2, UniProt P35961). The experiment can be described thus: ELISA.

B1: NIH45-46 (antibody, V domains shown)
VH: QVRLSQSGGQMKKPGESMRLSCRASGYEFLNCPINWIRLAPGRRPEWMGWLKPRGGAVNYARKFQGRVTMTRDVYSDTAFLELRSLTSDDTAVYFCTRGKYCTARDYYNWDFEHWGRGAPVTVSS
VL: EIVLTQSPATLSLSPGETAIISCRTSQSGSLAWYQQRPGQAPRLVIYSGSTRAAGIPDRFSGSRWGADYNLSISNLESGDFGVYYCQQYEFFGQGTKVQVD
Regarding B1, the binding result was “binds”.

B2: 3BNC60 (antibody, V domains shown)
VH: QVHLSQSGAAVTKPGASVRVSCEASGYKISDHFIHWWRQAPGQGLQWVGWINPKTGQPNNPRQFQGRVSLTRQASWDFDTYSFYMDLKAVRSDDTAIYFCARQRSDFWDFDVWGSGTQVTVSS
VL: DIQMTQSPSSLSARVGDTVTITCQANGYLNWYQQRRGKAPKLLIYDGSKLERGVPARFSGRRWGQEYNLTINNLQPEDVATYFCQVYEFIVPGTRLDLK
Regarding B2, the binding result is “binds”.
